The supplement of paper PMC9170038

Test system: K4 kissing-loop RNA reporter
Test: apparent KD of K4 kissing-loop reporter; higher = weaker reporter binding
Conditions: Eterna round: R107
Method: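 RNA-MaP round R107: designed RNA switches with theophylline, tryptophan, arginine or FMN aptamers are transcribed on-chip within common flanks. They are titrated with a labelled K4 kissing-loop RNA reporter in RNA-MaP buffer (100 mM Tris pH 7.5, 80 mM KCl, 4 mM MgCl2), without ligand or with the indicated ligand. Median apparent KD per design.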

[1] = input ligand: theophylline 20 uM
[2] = input ligand: tryptophan 2.4 mM
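Note: bound reporter read as fluorescence of individual clusters on recovered sequencing chips by microscopy, with normalized cluster intensities fitted with a binding model.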

Sequence	apparent KD of K4 kissing-loop reporter (input ligand: FMN 200 uM)	apparent KD of K4 kissing-loop reporter (input ligand: arginine 13.2 mM)	apparent KD of K4 kissing-loop reporter (input ligand: none)	apparent KD of K4 kissing-loop reporter [1]	apparent KD of K4 kissing-loop reporter [2]
CGGCGGAGUGAUGUUCUGCUCGCUCCGGAUACCAGCUUCGCCAGAGGCCCUUGGCAGCCGGGCGGCCCAGUGAUGUUGGGUUGCG [Same State Theophylline A GF 17]	0.297 µM	0.243 µM	0.277 µM	0.246 µM	0.237 µM
AAUAAUCUAGGUGAUACCAGCUCAACAUGAGUGAUGUUCAUGAAAUAAUGUAGAGUUGAGAGCCCUUGGCAGCACCUAGAUAAUA [KL-SSTheoB5]	0.264 µM	0.222 µM	0.239 µM	0.178 µM	0.24 µM
AGCGAGUGAUGUUCGCUGAUCAUGAGAAGUUAGGAUAUAUACUUGCAUAGAAGGAACUAUUUCAUGACAUUAGAGGCAGUAGUUC [FMN A SS t7]	0.159 µM	0.16 µM	0.158 µM	0.152 µM	0.125 µM
AUGUCUUAUAAACUCAUGGUUUCGACAGAUACCAGCUUCGAGAGGAGCCCUUGGCAGCUGCAUGAGUGAUGUUCAUGUACGAAGA [KL-XTheoA6]	0.37 µM	0.336 µM	0.516 µM	0.315 µM	0.301 µM
GACAGUCGGUGUUAAUGACAGUUACGCGAUACCAGCGAAACAGUACGCCCUUGGCAGCGCAGUGAUGUUGCGCGCCUAGUGUGGU [Esbiceve]	0.0995 µM	0.0948 µM	0.101 µM	0.0925 µM	0.0972 µM
UUUAUUAAGACGGCCGCCACUGAUUCAUAGUGAUGUUAUGAUAUAAUCUUAGUGAUAUUUAUAAACAGGACCGGGUCAAUUAUUA [JR_SSTryptoB_Sub026]	0.221 µM	0.173 µM	0.192 µM	0.166 µM	0.162 µM
UUUUAAAUGUCUGAUACCAGAGAAAAUAUAUGUAGUGAUGUUACAUACAAAUUUAAUAAGCUCCCUUGGCAGCAGUAUGAAUUUU [AstrosExc-TheB#15]	0.0446 µM	0.0667 µM	0.0559 µM	0.067 µM	0.0495 µM
GCGAAGAGAGAAGGAUAUUAGUAAUGCGUCAUGCGCCCUUACCAGUUAGUGAUGUUAACAAUACAUUAAGAAGGUCUCGGAAUCC [theeternabot_sameState_KL_FMN_B_50]	0.297 µM	0.169 µM	0.187 µM	0.215 µM	0.185 µM
UGACUGGACUGAAGGAGCGCGCGAGACAAAGUCUCGAACUCCUAGUGAUGUUAGGAAAUAACGCAGGUAGGUCGCAGUCUAGUCU [ArgBS 10 #SwitchBubble #StaticStem #DoubleMagnet]	0.225 µM	0.19 µM	0.243 µM	0.209 µM	0.241 µM
AACCACUCGUUACAUCACUAUCGAGUGGAACGAGGACCGGUACGGCCGCCACUCGAUAAGAUGCAGUGAUGUUGCAUCUAAGAAU [KL-SSTryp-A (BrourdMod)5 #dotplot2 strengthened]	0.208 µM	0.168 µM	0.183 µM	0.192 µM	0.141 µM
AGACUACCACACUGUCAAUAGACAGUGGACUAGGAUAUGCUGAUAAGCAGAAGGAGUGAUGUUCCCAGGUAGUCAAUAAAAUAAU [FmnAX 13 G28+C66]	0.215 µM	0.205 µM	0.225 µM	0.322 µM	0.246 µM
AAAAUUAAGGCCGAAUAAACUUAUUUCAUACGAGGACCGGUACGGCCGCCACUCGAGUCAAGUGAUGUUUGACUAUCUAUUAUUA [JR_ExcTryptoA_Sub009]	0.0614 µM	0.0871 µM	0.0687 µM	0.083 µM	0.054 µM
AAAAUAAAUCAGUGAUGUUGGUAUCUGGAUACCAGCGAUAAUAAUCGCCCUUGGCAGCCAUGGACGUACAAAAUAAGUACGUCCU [MatMod 18 - Jieux - Same State - Theophylline A]	0.285 µM	0.154 µM	0.226 µM	0.337 µM	0.2 µM
UCGGAGGGAGCGGCCGCCACUGUAUUACCUCGACGAACGCCGGUUUUCAUGAAGUGAUGUUUCGCCAGGACCGGGCUAAUCUGAG [theeternabot_exclusion_KL_Trp_B_46]	0.244 µM	0.202 µM	0.235 µM	0.217 µM	0.206 µM
ACAGUACCGGGAAGGAGCGUGAAUGAGAAUGGAUAUAGUGAUGUUAUGUAUACGAACGAAUCGCAGGUAGGUCGCCCGGAUCCCU [SSArgB.aD]	0.563 µM	0.507 µM	0.65 µM	0.722 µM	0.529 µM
AAAACUAUCAGAAGGAGCGUGGAAUAUUCAUCUGUAUCUAAUACGAGUGAUGUUCGUAAUUCACAGGUAGGUCGCUGAUCAAUAA [whbob_Ex_Arginine_B_2th155]	0.255 µM	0.226 µM	0.241 µM	0.25 µM	0.241 µM
AGCCGUCUAAGUGAUGUUUAGGCAUGUCAGCGAGGACCGGUACGGCCGCCACUCGUGCUAUUGAGAUUUCGGGUAGCCCACGUAG [theeternabot_sameState_KL_Trp_A_20]	0.288 µM	0.187 µM	0.271 µM	0.125 µM	0.163 µM
